1 molecule from publication PMC7261193, “The ancillary N-terminal region of the yeast AP-1 transcription factor Yap8 contributes to its DNA binding specificity” can be followed below.

Numbering of substitutions follows the chain as printed.

What all share (conditions): protein: recombinant; tags: GST (N-term); chain copies: 2; label: 5' FAM; blunt
The target in one data set is T1, GST-Yap8-N20A (Saccharomyces cerevisiae, UniProt Q06596 1-294, N20A).
T1 sequence: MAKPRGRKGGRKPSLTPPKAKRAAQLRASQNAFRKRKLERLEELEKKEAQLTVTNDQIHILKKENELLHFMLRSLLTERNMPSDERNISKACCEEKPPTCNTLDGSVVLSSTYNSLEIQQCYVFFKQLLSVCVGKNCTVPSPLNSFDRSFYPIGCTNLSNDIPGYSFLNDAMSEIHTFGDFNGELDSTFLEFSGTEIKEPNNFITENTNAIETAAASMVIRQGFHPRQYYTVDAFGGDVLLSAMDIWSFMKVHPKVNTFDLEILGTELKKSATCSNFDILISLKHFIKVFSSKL
Kind of data set: fluorescence anisotropy; series a; FA: 10 mM Tris-HCl pH 8, 50 mM NaCl, 0.5% NP-40, 1 mM DTT, 5% glycerol, 1 nM DNA, 25C (half volume protein elution buffer). Biotin EMSA: LightShift 1x buffer, 50 ng poly(dI-dC), 2.5% glycerol, 0.05% NP-40, 5 mM MgCl2, 20 fmol probe, RT 20 min. 32P EMSA: 10 mM Tris-HCl pH 8.0, 50 mM NaCl, 1 mM DTT, 0.05% NP-40, 100 ng poly(dI-dC), 6% glycerol, 4C 30 min. In general terms: In fluorescence polarisation assays a small probe gives low polarisation when free and higher when bound to something large.

Data set [1] concerns the target T2, GST-Yap8 WT (Saccharomyces cerevisiae, UniProt Q06596 1-294).
T2 sequence: T1 sequence with A20N
The data set is described as above.

The target of the next data set is T3, GST-Yap8-R7A (Saccharomyces cerevisiae, UniProt Q06596 1-294, R7A).
T3 sequence: T1 sequence with R7A, A20N
As to the kind of experiment: fluorescence anisotropy; series b; FA: 10 mM Tris-HCl pH 8, 50 mM NaCl, 0.5% NP-40, 1 mM DTT, 5% glycerol, 1 nM DNA, 25C (half volume protein elution buffer). Biotin EMSA: LightShift 1x buffer, 50 ng poly(dI-dC), 2.5% glycerol, 0.05% NP-40, 5 mM MgCl2, 20 fmol probe, RT 20 min. 32P EMSA: 10 mM Tris-HCl pH 8.0, 50 mM NaCl, 1 mM DTT, 0.05% NP-40, 100 ng poly(dI-dC), 6% glycerol, 4C 30 min.

For data set [2], the target named is T2, GST-Yap8 WT. The data set is described as above.
In a further data set the target is T4, GST-Yap8-R11A (Saccharomyces cerevisiae, UniProt Q06596 1-294, R11A).
T4 sequence: T1 sequence with R11A, A20N
The data set is described as above.

Data set [3] addresses T2, GST-Yap8 WT. Kind of data set: fluorescence anisotropy; series c; FA: 10 mM Tris-HCl pH 8, 50 mM NaCl, 0.5% NP-40, 1 mM DTT, 5% glycerol, 1 nM DNA, 25C (half volume protein elution buffer). Biotin EMSA: LightShift 1x buffer, 50 ng poly(dI-dC), 2.5% glycerol, 0.05% NP-40, 5 mM MgCl2, 20 fmol probe, RT 20 min. 32P EMSA: 10 mM Tris-HCl pH 8.0, 50 mM NaCl, 1 mM DTT, 0.05% NP-40, 100 ng poly(dI-dC), 6% glycerol, 4C 30 min.

B1: ACR3-WT (FAM) (dsDNA)
DNA 1: CTTTTTGTTTGATTAATAATCAACTTTAGCG
DNA 2: CGCTAAAGTTGATTATTAATCAAACAAAAAG
Turning to B1, the Kd (as a rule, the equilibrium constant for the complex coming apart) in the data set with GST-Yap8-N20A was 25.5 ± 4.3 nM; with GST-Yap8 WT [1], 9.9 ± 1.4 nM; with GST-Yap8-R7A it was 13.4 ± 1.7 nM; with GST-Yap8 WT [2], 10.8 ± 1.7 nM; with GST-Yap8-R11A it was 18.9 ± 2.9 nM; with GST-Yap8 WT [3] it was 10.8 ± 3.5 nM.
